Experimental data published in patent publication US20250051467A1 (JIANGSU HENGRUI PHARMACEUTICALS, published 2025).
Substitutions are numbered along the chain they refer to. Numbers in names are those of the source.

B1: Ab9 (antibody, human IgG1, kappa, L234A L235A, V domains shown)
VH: QMQLVQSGAEVKKPGASVTVSCRASGYSFADHFIHWVRQAPGQGFQWMGWINPNRGVTHHAQDFQGRVAMTRDMSTDTVYMELTSLRSDDTAVYYCARDESLTARPYYFYGFDVWGQGTLVTVSS
VL: DIQMTQSPSSVSASVGDRVTITCRASQGISSWLAWYQQKPGKAPKLLIYAASSLQSGVPSRFSGSGSGTDFTLTISSLQPEDFATYYCQQANSFPPAFGQGTKVEIKR
notes: Fully human, IgG1 / kappa; also called anti-FAP antibody Ab9
B2: Ab10 (antibody, human IgG1, kappa, L234A L235A, V domains shown)
VH: B1 VH with M2V, V5Q, A9V, E100A
VL: B1 VL
notes: Fully human, IgG1 / kappa; also called anti-FAP antibody Ab10; Ab110
B3: Ab15 (antibody, human IgG1, kappa, L234A L235A, V domains shown)
VH: B1 VH
VL: B1 VL with D1E, Q3V, M4L, L46S, A97T, Q100G
notes: Fully human, IgG1 / kappa; also called anti-FAP antibody Ab15
B4: Ab14 (antibody, human IgG1, kappa, L234A L235A, V domains shown)
VH: B1 VH with M2V, V5Q, A9V, E100A
VL: B1 VL with D1E, Q3V, M4L, P96L, A97T, Q100G
notes: Fully human, IgG1 / kappa; also called anti-FAP antibody Ab14; Ab114
B5: Ab10-A297V3-2 (bispecific antibody, human IgG1, kappa, L234A L235A)
heavy: not shown
light: DIQMTQSPSSVSASVGDRVTITCRASQGISSWLAWYQQKPGKAPKLLIYAASSLQSGVPSRFSGSGSGTDFTLTISSLQPEDFATYYCQQANSFPPAFGQGTKVEIKRTVAAPSVFIFPPSDEQLKSGTASVVCLLNNFYPREAKVQWKVDNALQSGNSQESVTEQDSKDSTYSLSSTLTLSKADYEKHKVYACEVTHQGLSSPVTKSFNRGEC
notes: Ab10 IgG1 (L234A/L235A) with one A297V3 VHH on each heavy chain C-terminus; divalent for CD40; also called Ab0-A297V3-2
B6: Ab10-A297V3-4 (bispecific antibody, human IgG1, kappa, L234A L235A)
heavy: not shown
light: B5 light
notes: Ab10 IgG1 (L234A/L235A) with two A297V3 VHHs in tandem on each heavy chain C-terminus; tetravalent for CD40; also called Ab0-A297V3-4

Legend:
h-FAP-His [1] = biological target: T1, h-FAP-His (human, UniProt Q12884 26-760); assay: ELISA, human FAP-His coated
T1 construct: range 26-760; Bought recombinant protein with a His tag; also called human FAP-His protein; FAP recombinant protein with a His tag
Description: A FAP recombinant protein with a His tag was directly used for coating. After the antibodies were added, a secondary antibody (an HRP-conjugated anti-human IgG antibody) and the HRP substrate TMB were added to measure the binding activity of the antibodies to the antigen. The assay comprises the following steps: A […] solution of human FAP-His protein was used to coat a 96-well microplate at 100 μL/well, and the plate was incubated overnight at 4° C. After a thorough wash, a blocking solution was added at 200 μL/well, and the plate was incubated at room temperature for 2 h. After a thorough wash, dilutions of test anti-FAP antibodies were added at 100 μL/well. The plate was incubated at room temperature for 1 h. After a thorough wash, a 1:20,000 dilution of an HRP-labeled goat anti-human IgG secondary antibody was added at 100 μL/well. The plate was incubated at room temperature for 1 h. After a thorough wash, TMB was added at 100 μL/well, and the plate was incubated in the dark for 15 min. 0.16 M sulfuric acid was added at 50 μL/well. The OD value at 450 nm was measured on a Thermo MultiSkanFc microplate reader, and the binding EC₅₀ values of the anti-FAP antibodies were calculated.

human FAP on CHO cells [2] = biological target: T2, human FAP on CHO cells (human, UniProt Q12884 1-760); assay: FACS, CHO cells overexpressing human FAP
T2 construct: whole, on cells; also called CHO cell line overexpressing human FAP; CHOK1/FAP
Description: (§1) A FACS assay was used to measure the binding properties of anti-FAP antibodies on cells. The assay comprises the following steps: A CHO cell line overexpressing human FAP was constructed and plated (1E5/well). The test antibodies were added at 100 μL/well. The highest concentration was 100 nM. A 5-fold dilution was performed, yielding 8 concentrations in total. The plate was incubated at 4° C. for 1 h. Anti-hIgG Alexa Fluor-647 was added as a secondary antibody in the ratio of 1:500. The plate was incubated at 4° C. for 30 min, and a FACS assay was performed. Antibodies that bind to FAP can mark cells. The relation between the percentage of the marked cells that over-express human FAP among all cells and the antibody concentration is shown in FIG. 1. The relation between the percentage of the marked cells that over-express mouse FAP among all cells and the antibody concentration is shown in FIG. 2.

h-FAP-His [3] = biological target: T1, h-FAP-His; assay: SPR, antibody captured by anti-human IgG Fc, h-FAP-His analyte
Description: (§2) A CM5 sensor chip was used, and HBS-EP+buffer solution (10 mM HEPES, 150 mM NaCl, 3 mM EDTA, 0.05% surfactant P20) was used as the mobile phase. An anti-human IgG (Fc) antibody was made into a […] solution in a 10 mM sodium acetate buffer solution (pH 5.0) and immobilized by amino coupling. The test antibodies were diluted in HBS-EP+buffer solution and captured by the anti-human IgG (Fc) antibody on chip channels. h-FAP-His was dissolved in HBS-EP+buffer solution to prepare an analyte, and the analyte was serially diluted 2-fold. The diluted antibodies were passed through the experimental and reference channels at a flow rate of […], with 1 min of binding and 15 min of disassociation. 10 mM Glycine pH 1.5 was passed as a regeneration buffer solution for 30 s at a flow rate of […]. Data were analyzed. […] However, the binding affinities of the other anti-FAP antibodies obtained by screening at the same time in the present disclosure, such as Ab2, Ab4 and Ab5 (sequences not shown), for the antigen are lower than that of 28H1.

mouse FAP on CHOK1 cells [4] = biological target: T3, mouse FAP on CHOK1 cells (mouse, UniProt P97321 1-761); assay: FACS, percent of marked cells overexpressing mouse FAP, anti-hIgG Alexa Fluor-647 secondary antibody
T3 construct: whole, on cells; also called cell surface mouse FAP
Description: as §1

human FAP on CHO cells [5] = biological target: T2, human FAP on CHO cells; assay: FACS, CHOK1 cells stably expressing human FAP
Description: (§3) In this experiment, the binding of the anti-FAP/CD40 bispecific antibodies to stably transfected strains of CHOK1 cells that highly express human FAP, cynomolgus monkey FAP and mouse FAP was measured by FACS.

mouse FAP on CHOK1 cells [6] = biological target: T3, mouse FAP on CHOK1 cells; assay: FACS, CHOK1 cells stably expressing mouse FAP
Description: as §3

[7] = biological target: T4, cynomolgus monkey FAP on CHOK1 cells (cynomolgus monkey); assay: FACS, CHOK1 cells stably expressing cynomolgus monkey FAP
T4 construct: whole, on cells
Description: as §3

[8] = biological target: T5, human FAP protein (Acro, FAP-H5244) (human, UniProt Q12884 26-760); assay: SPR (Biacore 8K), antibody captured by anti-human IgG Fc, human FAP analyte
T5 construct: Bought protein
Description: (§4) The affinities of the anti-FAP/CD40 bispecific antibodies for their antigens, the human FAP protein (Acro, FAP-H5244) and the human CD40 protein (Acro, CD0-H5228), were measured by SPR (GE Healthcare; Biacore 8K). A CM5 sensor chip was used, and HBS-EP+buffer solution (10 mM HEPES, 150 mM NaCl, 3 mM EDTA, 0.05% surfactant P20) was used as the mobile phase. An anti-human IgG (Fc) antibody was immobilized by amino coupling. The test antibodies were separately diluted in HBS-EP+buffer solution as ligands and captured by the anti-human IgG (Fc) antibody on chip channels. Antigenic proteins of different species were used as analytes.

h-FAP-His [9] = biological target: T1, h-FAP-His; assay: SPR, h-FAP-His analyte; upper end tied to Ab15 by Table 6
Description: as §2

h-FAP-His [10] = biological target: T1, h-FAP-His; assay: SPR, h-FAP-His analyte; lower end tied to Ab14 by Table 6
Description: as §2

[11] = biological target: T6, human CD40 on cells (Raji cells; HEK-Blue CD40L cells; human dendritic cells) (human, UniProt P25942 21-277); assay: FACS, HEK-Blue CD40L cells expressing human CD40
T6 construct: whole, on cells; One entry for untagged full-length human CD40 on cells; also called Raji cell surface human CD40; human cell surface CD40 antigen
Description: (§5) The binding of the bispecific antibodies to cell surface CD40 was measured by FACS, including HEK-Blue™CD40L cells highly expressing human CD40 (Invivogen, Cat #hkb-cd40), and HEK293 cells that were transiently transfected with cynomolgus monkey CD40 plasmids (Sino Biological, cat #CG90970-UT) and thus made to highly express cynomolgus monkey CD40. […] See FIGS. 9A, 9B and 11 and Table 21 for details.

[12] = biological target: T6, human CD40 on cells (Raji cells; …); assay: flow cytometry on immature human dendritic cells (CD40)
[13] = biological target: T7, cynomolgus monkey CD40 on HEK293 cells (cynomolgus monkey, UniProt G7PG38 21-278); assay: FACS, HEK293 cells transiently expressing cynomolgus monkey CD40
T7 construct: whole, on cells
Description: as §5

h-CD40-His = biological target: T8, h-CD40-His (human, UniProt P25942 21-193); assay: SPR (Biacore 8K), antibody captured by anti-human IgG Fc, human CD40 analyte
T8 construct: range 21-193; Bought His-tagged recombinant protein; also called human CD40 protein (Acro, CD0-H5228); human CD40
Description: as §4

T8 sequence (P25942 21-193 limits assumed): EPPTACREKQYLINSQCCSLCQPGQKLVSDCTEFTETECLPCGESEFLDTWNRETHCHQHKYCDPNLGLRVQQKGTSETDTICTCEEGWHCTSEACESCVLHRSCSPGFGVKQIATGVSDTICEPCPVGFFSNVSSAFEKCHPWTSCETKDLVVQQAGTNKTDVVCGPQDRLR
T3 sequence (P97321 whole entry): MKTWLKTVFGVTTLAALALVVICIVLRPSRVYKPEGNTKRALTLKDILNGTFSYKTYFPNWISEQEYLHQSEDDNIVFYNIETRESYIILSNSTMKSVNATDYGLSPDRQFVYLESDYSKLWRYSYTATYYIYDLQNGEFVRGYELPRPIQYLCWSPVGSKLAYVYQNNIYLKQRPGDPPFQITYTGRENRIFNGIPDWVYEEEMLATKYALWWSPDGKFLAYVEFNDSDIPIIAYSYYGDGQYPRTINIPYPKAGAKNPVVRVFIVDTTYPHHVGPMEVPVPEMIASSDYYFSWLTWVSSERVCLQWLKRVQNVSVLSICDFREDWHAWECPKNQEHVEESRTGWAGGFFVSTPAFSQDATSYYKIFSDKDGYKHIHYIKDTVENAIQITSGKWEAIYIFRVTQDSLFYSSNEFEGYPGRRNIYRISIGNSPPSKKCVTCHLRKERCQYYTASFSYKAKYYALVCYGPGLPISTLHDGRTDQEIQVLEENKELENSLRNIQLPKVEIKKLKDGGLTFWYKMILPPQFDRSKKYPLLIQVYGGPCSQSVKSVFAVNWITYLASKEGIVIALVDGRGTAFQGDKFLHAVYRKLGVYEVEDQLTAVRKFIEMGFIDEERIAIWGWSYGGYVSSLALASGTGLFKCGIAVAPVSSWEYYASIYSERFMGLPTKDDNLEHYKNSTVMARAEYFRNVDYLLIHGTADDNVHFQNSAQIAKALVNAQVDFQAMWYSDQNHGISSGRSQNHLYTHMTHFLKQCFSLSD
T6 sequence (P25942 21-277): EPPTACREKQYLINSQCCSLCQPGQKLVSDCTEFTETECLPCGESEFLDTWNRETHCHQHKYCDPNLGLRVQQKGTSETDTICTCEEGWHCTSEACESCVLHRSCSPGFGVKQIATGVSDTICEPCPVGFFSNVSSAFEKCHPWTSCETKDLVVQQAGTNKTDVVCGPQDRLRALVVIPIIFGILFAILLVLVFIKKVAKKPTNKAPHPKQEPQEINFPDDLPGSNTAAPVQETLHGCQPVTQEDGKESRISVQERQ

Binder | EC50 (h-FAP-His [1]) | EC50 (human FAP on CHO cells [2]) | Kd (h-FAP-His [3]) | Ratio of KD of 28H1 to KD of test antibody (h-FAP-His [3]) | Ratio of Kd of 28H1 to Kd of test antibody (h-FAP-His [3]) | koff (h-FAP-His [3]) | kon (h-FAP-His [3]) | EC50 (read off the curve) (mouse FAP on CHOK1 cells [4]) | EC50 (human FAP on CHO cells [5]) | Emax (MFI) (human FAP on CHO cells [5]) | EC50 (mouse FAP on CHOK1 cells [6]) | Emax (MFI) (mouse FAP on CHOK1 cells [6]) | EC50 [7] | Emax (MFI) [7] | Kd [8] | koff [8] | kon [8] | EC50 [11] | Emax (MFI) [11] | EC50 (read off the curve) [12] | further results
B1 | 101000 ng/mL | 0.368 ng/mL | 0.306 nM | 4.3 | 3.54 | 7.19e-05 s⁻¹ | 235000 M⁻¹ s⁻¹ | ~5 ng/mL | – | – | – | – | – | – | – | – | – | – | – | – | –
B2 | 92000 ng/mL | 0.432 ng/mL | 0.245 nM | 5.3 | 3.5 | 7.28e-05 s⁻¹ | 297000 M⁻¹ s⁻¹ | ~2 ng/mL | 1.41 nM | 72000 MFI | 10.4 nM | 26400 MFI | 7.34 nM | 64600 MFI | 0.34 nM | 7.39e-05 s⁻¹ | 217000 M⁻¹ s⁻¹ | – | – | – | –
B3 | 321000 ng/mL | 0.486 ng/mL | 0.215 nM | 6.1 | 2.43 | 0.000105 s⁻¹ | 488000 M⁻¹ s⁻¹ | ~8 ng/mL | – | – | – | – | – | – | – | – | – | – | – | – | fold affinity over 28H1 (h-FAP-His [9]): 3 to 6 times
B4 | 417000 ng/mL | 0.474 ng/mL | 0.365 nM | 3.6 | 2.1 | 0.000121 s⁻¹ | 332000 M⁻¹ s⁻¹ | ~8 ng/mL | – | – | – | – | – | – | – | – | – | – | – | – | fold affinity over 28H1 (h-FAP-His [10]): 3 to 6 times
B5 | – | – | – | – | – | – | – | – | 2.51 nM | 65200 MFI | 0.79 nM | 12600 MFI | 1.09 nM | 28200 MFI | 0.405 nM | 8.22e-05 s⁻¹ | 203000 M⁻¹ s⁻¹ | 1.66 nM | 6250 MFI | ~4 nM | EC50 [13]: 1.31 nM; Emax (MFI) [13]: 4930 MFI; Kd (h-CD40-His): 141 nM; koff (h-CD40-His): 0.0294 s⁻¹; kon (h-CD40-His): 209000 M⁻¹ s⁻¹
B6 | – | – | – | – | – | – | – | – | 1.57 nM | 53800 MFI | 1.65 nM | 12700 MFI | 1.35 nM | 32500 MFI | 0.378 nM | 6.96e-05 s⁻¹ | 184000 M⁻¹ s⁻¹ | 0.94 nM | 5080 MFI | ~1 nM | EC50 [13]: 0.88 nM; Emax (MFI) [13]: 5120 MFI; Kd (h-CD40-His): 262 nM; koff (h-CD40-His): 0.137 s⁻¹; kon (h-CD40-His): 524000 M⁻¹ s⁻¹
